Assay results as given in paper PMC4265565 (Protein expression and purification, 2012).

Biological target: XPB–p62–p44–p34 sub-complex (human, UniProt P19447 1-782; P32780 1-548; Q13888 1-395; Q13889 1-308)
Test: SEC

Sequence of XPB–p62–p44–p34 sub-complex (P19447 whole entry, chain 1 of 4): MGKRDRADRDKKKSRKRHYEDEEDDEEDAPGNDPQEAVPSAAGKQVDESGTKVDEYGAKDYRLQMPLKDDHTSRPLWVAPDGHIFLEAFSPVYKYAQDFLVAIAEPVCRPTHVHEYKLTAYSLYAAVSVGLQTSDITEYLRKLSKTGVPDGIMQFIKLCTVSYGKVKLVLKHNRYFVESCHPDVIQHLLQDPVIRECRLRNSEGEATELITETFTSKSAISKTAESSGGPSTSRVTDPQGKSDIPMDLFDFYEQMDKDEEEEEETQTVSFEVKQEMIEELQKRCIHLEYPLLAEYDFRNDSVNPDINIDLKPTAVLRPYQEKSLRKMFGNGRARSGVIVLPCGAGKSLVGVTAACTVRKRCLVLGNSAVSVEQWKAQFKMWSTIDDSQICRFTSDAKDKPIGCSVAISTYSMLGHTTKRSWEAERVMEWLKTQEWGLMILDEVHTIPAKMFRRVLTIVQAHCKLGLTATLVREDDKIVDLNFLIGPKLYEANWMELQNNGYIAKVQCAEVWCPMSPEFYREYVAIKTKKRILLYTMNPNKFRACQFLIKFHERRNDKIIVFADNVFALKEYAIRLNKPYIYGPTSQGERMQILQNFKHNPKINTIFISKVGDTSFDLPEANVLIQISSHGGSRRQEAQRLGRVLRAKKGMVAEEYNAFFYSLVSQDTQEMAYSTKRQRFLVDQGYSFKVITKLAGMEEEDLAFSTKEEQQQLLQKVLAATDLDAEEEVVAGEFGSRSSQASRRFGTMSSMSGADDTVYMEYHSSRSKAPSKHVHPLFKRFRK
Sequence of XPB–p62–p44–p34 sub-complex (P32780 whole entry, chain 2 of 4): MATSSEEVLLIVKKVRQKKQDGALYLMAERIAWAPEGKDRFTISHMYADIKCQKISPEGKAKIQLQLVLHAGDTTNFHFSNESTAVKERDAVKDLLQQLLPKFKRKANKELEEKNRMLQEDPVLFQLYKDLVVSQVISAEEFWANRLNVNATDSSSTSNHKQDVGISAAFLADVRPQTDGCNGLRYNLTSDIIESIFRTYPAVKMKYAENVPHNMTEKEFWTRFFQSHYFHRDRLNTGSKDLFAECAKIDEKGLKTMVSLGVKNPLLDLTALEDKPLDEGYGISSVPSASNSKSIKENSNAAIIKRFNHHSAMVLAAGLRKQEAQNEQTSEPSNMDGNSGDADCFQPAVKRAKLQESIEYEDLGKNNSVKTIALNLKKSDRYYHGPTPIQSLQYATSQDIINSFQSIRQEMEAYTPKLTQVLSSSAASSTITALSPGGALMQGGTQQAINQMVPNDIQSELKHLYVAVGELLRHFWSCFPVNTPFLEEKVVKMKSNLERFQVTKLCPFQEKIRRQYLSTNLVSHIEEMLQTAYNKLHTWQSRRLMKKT
Sequence of XPB–p62–p44–p34 sub-complex (Q13888 whole entry, chain 3 of 4): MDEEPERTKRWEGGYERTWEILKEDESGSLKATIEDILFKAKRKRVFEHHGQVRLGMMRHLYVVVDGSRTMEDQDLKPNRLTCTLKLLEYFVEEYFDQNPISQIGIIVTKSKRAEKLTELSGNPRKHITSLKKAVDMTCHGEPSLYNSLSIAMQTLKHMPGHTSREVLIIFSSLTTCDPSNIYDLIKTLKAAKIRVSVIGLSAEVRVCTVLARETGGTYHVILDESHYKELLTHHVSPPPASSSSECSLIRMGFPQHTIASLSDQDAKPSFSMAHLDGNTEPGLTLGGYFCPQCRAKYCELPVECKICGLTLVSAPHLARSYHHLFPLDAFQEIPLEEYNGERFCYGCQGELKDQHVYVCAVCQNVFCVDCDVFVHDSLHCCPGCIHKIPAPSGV
Sequence of XPB–p62–p44–p34 sub-complex (Q13889 whole entry, chain 4 of 4): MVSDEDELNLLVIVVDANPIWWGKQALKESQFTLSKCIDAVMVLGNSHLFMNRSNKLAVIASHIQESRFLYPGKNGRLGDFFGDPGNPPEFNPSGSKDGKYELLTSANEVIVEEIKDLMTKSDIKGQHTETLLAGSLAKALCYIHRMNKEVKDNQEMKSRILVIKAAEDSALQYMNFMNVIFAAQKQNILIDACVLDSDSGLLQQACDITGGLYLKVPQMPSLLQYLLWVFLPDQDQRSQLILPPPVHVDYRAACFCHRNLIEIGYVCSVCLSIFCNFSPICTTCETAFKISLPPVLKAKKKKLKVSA

binding result: binds
B1: GST–p8 (natural protein, human, UniProt Q6ZYL4 1-71, looked up)
chain: MVNVLKGVLIECDPAMKQFLLYLDESNALGKKFIIQDIDDTHVFVIAELVNVLQERVGELMDQNAFSLTQK
